According to patent publication US20180038857A1:

Assays:
Assay in all cases: cell-based or functional assay
hCCR3 (human) = hCCR3 (human) (UniProt P51677)
hCCR9 (human) = hCCR9 (human) (UniProt P51686)
hCCR6 (human) = target: T1, hCCR6 (human) (UniProt P51684)
T1 sequence (looked up): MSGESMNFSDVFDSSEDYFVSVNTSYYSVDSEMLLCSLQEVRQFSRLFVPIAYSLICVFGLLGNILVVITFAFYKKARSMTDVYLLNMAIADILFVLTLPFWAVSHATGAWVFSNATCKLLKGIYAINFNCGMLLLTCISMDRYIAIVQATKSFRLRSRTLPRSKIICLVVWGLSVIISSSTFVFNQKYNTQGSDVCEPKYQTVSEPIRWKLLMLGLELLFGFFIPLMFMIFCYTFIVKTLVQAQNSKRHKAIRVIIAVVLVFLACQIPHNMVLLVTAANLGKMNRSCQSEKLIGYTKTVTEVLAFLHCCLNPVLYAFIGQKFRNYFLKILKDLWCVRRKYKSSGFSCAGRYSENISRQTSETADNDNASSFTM

hCXCR3 (human) = hCXCR3 (human) (UniProt P49682)
Sequence of hCXCR3 (human) (P49682 whole entry): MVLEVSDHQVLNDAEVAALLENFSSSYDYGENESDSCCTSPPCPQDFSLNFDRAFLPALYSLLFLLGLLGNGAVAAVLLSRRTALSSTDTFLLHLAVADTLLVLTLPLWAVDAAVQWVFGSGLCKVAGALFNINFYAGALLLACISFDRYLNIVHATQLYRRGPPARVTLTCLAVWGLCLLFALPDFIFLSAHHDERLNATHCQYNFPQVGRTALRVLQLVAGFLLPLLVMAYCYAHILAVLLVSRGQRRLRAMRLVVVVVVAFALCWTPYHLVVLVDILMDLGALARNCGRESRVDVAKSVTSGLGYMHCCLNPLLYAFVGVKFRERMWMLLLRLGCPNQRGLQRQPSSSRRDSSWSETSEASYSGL

Sequence of hCCR9 (human) (P51686 whole entry): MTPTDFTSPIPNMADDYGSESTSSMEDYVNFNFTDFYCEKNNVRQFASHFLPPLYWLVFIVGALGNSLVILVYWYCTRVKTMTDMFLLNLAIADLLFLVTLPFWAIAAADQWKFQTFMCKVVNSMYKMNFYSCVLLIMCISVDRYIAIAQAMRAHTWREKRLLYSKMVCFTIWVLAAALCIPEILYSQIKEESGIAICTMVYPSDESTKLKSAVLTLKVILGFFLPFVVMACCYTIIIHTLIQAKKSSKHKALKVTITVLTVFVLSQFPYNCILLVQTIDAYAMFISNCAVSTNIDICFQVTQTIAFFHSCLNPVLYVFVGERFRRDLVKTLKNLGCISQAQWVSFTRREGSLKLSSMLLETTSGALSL
Sequence of hCCR3 (human) (P51677 whole entry): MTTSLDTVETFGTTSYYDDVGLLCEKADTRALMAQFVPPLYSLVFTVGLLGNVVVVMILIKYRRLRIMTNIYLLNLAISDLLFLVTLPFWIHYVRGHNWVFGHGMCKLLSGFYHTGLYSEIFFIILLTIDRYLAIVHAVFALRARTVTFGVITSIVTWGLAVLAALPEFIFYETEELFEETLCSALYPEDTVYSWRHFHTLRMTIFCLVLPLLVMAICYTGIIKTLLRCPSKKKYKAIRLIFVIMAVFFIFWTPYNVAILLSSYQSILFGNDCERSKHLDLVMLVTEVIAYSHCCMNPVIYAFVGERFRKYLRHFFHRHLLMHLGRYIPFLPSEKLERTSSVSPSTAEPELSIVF
Sequence of recombinant native MIP-3α (P78556 27-96 limits assumed): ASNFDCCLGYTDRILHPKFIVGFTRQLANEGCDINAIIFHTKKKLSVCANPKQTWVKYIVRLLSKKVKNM
Sequence of UniProt O15444 (O15444 other isoform, or with tags, fused parts or gaps limits assumed): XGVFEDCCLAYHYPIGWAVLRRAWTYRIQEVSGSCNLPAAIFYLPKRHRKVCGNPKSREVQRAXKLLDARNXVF

recombinant native eotaxin (from UniProt P51671 24-97) (ligand)
EC50, activity in an Aequorin assay (agonist) (hCCR3 (human)): 0.0107 µM

recombinant native TECK (from UniProt O15444 24-150) (ligand)
EC50, agonist activity in an Aequorin assay (hCCR9 (human)): 0.0679 µM

biotinTECK(Met to Nleu substitution) (CCL25): TECK derivatised at the ε-amino side chain functionality of Lys72 with PEG-Biotin (from UniProt O15444 25-97) (ligand)
EC50, agonist activity in an Aequorin assay (hCCR9 (human)): 0.0636 µM

recombinant native MIP-3α (from UniProt P78556 27-96) (ligand)
EC50, agonist activity in an Aequorin assay (hCCR6 (human)): 0.001 µM

recombinant native IP-10 (from UniProt P02778 22-98) (ligand)
EC50, agonist activity in an Aequorin assay (hCXCR3 (human)): 0.0044 µM
